Measured values reported in the RNAGym collection of RNA variant scans (doi:10.1073/pnas.2313332121).

B1: TPR t1 (parent)
chain: GACCAAUCUGCCCUCAGAGCUCGAGAACAUCUUCGGAUGCAGAGGAGGCAGGCUUCGGUGGCGCGAUAGCGCCAACGUCCUCAACCUCCAAUGCAUCCCACCACAUGAUGAUGCCUGAAGAGCCUUGGUUUUUUG

Variants of: B1
Experiment: polymerase ribozyme fitness, log enrichment relative to wild type (log ratio); higher = more active; in vitro selection for triplet polymerase activity
Outline: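 The heterodimeric triplet polymerase ribozyme's subunits were each mutagenized into PCR-built libraries and transcribed. Every library was selected once, in triplicate, by annealing with a biotinylated primer, the partner subunit and triplets, incubating frozen at −7 °C, gel-excising extended constructs, capturing on streptavidin beads and running RT-PCR. Input and output libraries were Illumina-sequenced, with genotypes kept only at ≥10 input reads and ≥1 read per output. Fitness, from inverse-variance-weighted replicate averages, is the base-2 logarithm of genotype enrichment over wild-type enrichment.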

| Variant | polymerase ribozyme fitness (log ratio) |
| --- | --- |
| A43G G128A | -3.36 |
| C8A A29U U55G | -1.42 |
| C72A U78A G110C | -4.71 |
| C53U G69C | -1.01 |
| G17U C64U | -2.46 |
| C72G U78A G127U U129C | -2.25 |
| C3U U7G A29G C101U U106C | -4.76 |
| G113C C123A | -2.82 |
| G69C U78G C115U U125A | -5.54 |
| U32C C53U C56A A118U | 0.16 |
| A26G G110U | -2.66 |
| G127U U129A U130C | -1.27 |
| A50U C70U | -1.67 |
| C12U G42U G52U A66U C72U C115A G117A | -6.98 |
| G48U G52U C102A | -4.14 |
| A29U A37U G60U C89U | -3.5 |
| A29U G47A C62U C82U G117C | -5.79 |
| A74C A75U G110A | -1.52 |
| G42A U55G | -1.85 |
| G25U A26G A46U | -3.61 |
| A18C C20A U54A G63C U96A | -4.09 |

| Variant | polymerase ribozyme fitness (log ratio) |
| --- | --- |
| C12A C13G | -0.617 |
| U9G A43G C49A U81A G127U U133G | -2.11 |
| C49A C72A A83C C101A A121U | 0.741 |
| A95U G113A G122A | -3.26 |
| C53G C62A | -1.3 |
| G39A A74G | -0.641 |
| G60U A103U | -4.99 |
| A41U G57C C62U | -0.95 |
| C12G G60U G61C C88A U112A A119G | -3.63 |
| A41U G69U U78G C123U | 1.47 |
| C72G C114A | -1.55 |
| C56U G69A U78G A83C | -4.4 |
| G113U U131C | -3.4 |
| C15U A46U U54G C123A | -1.74 |
| U38G G113U U125G | -3.75 |
| A29G A50C | -1.66 |
| C12A C20A G63A | -3.86 |
| G47C C70U G120C | -0.515 |
| C56U G127U | -0.508 |
| G36A G58A C62U U116A | -4.45 |
| G45U A50U G60U C79G | -2.53 |

| Variant | polymerase ribozyme fitness (log ratio) |
| --- | --- |
| G71U C101U C115A | -0.712 |
| A18G A27G | -4.94 |
| C82U A95C U106A | -0.318 |
| U9A C13A C22G G48C G71A | -5.83 |
| C13A C40A G71A | -4.02 |
| U14G C40A | -2.06 |
| C15A G39C A41U C101U | -3.77 |
| C53U C73G C89U U112G | -1 |
| C15G C70A | -5.24 |
| C3G G61U C94A A95C C124A U132C U133C | -3.25 |
| C11U A18C C72G G127A | -5.18 |
| C56U C73U A105U | -2.37 |
| A121G U129C | 0.0991 |
| C64U C97A | -5.08 |
| A18G U54A C62U C88G A111C G113C U125A | -3.53 |
| G45U U78A | -1.86 |
| G69C G135C | -1.59 |
| U30G G69U G120A U126A U131G | -4.39 |
| G45A U59C C62G | -5.53 |
| C20G C56G | -4.45 |
| C4U A26G C28U C40A C64A C123U | -6.51 |

| Variant | polymerase ribozyme fitness (log ratio) |
| --- | --- |
| C22A G36U C88U C115A | -5.17 |
| A16G C97G U116C | -2.75 |
| C8A C12U A43U G51U C56U U81C C85A C97A A111G | -6.23 |
| A16G G36U G69C A121U | -1.25 |
| A5C C11G C85G | -1.61 |
| A18U A46U G61U A90C C115G | -2.56 |
| C97U G120A | 0.391 |
| C15A C88G | -2.59 |
| U54A C104U C114G C115U | -5.34 |
| G45C U112C | 1.16 |
| C4U C15A G45C G61U C72A | -2.72 |
| C34U G51U G61A C114U | -6.98 |
| C56G G77A C102U U116C | -3.2 |
| C53G G63U | -2.05 |
| U9G G47C G60C A83C | -3.63 |
| C20G C64A C70G G113A U125G U133G | -5.92 |
| C40G G48A C64U C104A U109A C114A U130A | -5.98 |
| G39A C70U A118G G122A | -0.719 |
| G39A C40U C72G | -2.72 |
| C88A U109A | -5.8 |
